Five molecules from patent US10705101B2, “Determination of the unbound free fatty acid profiles in biological and industrial specimens” (priority 2013, dated 2020) can be followed below.

Assay [1] can be described thus: FFAu profiles in plasma of rats infused with nicotinic acid and different oils. The format is in vivo. The conditions noted are these: rat plasma. As for the experimental part:
The 5 panels from top to bottom are: A: saline, B: nicotinic acid, C: nicotinic acid+safflower oil, D: nicotinic acid+olive oil, and E: nicotinic acid+coconut oil.
That the FFAu profiles are determined accurately by the method of the present invention is determined by infusing into the blood circulation, of animals and potentially in human subjects, oil/lipid emulsions of known composition, together with heparin. The oils are hydrolyzed by lipoprotein lipases that are released from the capillary endothelial cells by heparin. This lipase activity releases FFAu from the oil that is characteristic of the oil's known composition. Comparing FFAu profiles determined before and after infusion allows determination of the oil composition overlayed on the plasma matrix. Comparing results with different oils and at different levels assesses the validity of the method for determining FFAu profiles in blood samples (for example FIG. 2).
Results are averages of 7 animals for each condition. Nicotinic acid inhibits hormone sensitive lipase (HSL) in adipose tissue resulting in a reduction in circulating FFA levels. Whereas infusion of emulsions of oils of different compositions, together with heparin to activate lipoprotein lipase, will result in the increase of plasma FFA that reflect the composition of the infused oils. When infused together NA and oils results in FFAu profiles that are a conflation of the two effects. […] Adding NA reduces all FFAu except AA which becomes the dominant fraction at nearly 50%. […] NA plus coconut oil results in LAU and MA contributing over 90% of the total FFAu (total FFAu=sum of the concentrations of each of the 9 resolved FFAu). NA plus olive oil results in OA as the dominant FFAu but just barely because NA reduces baseline OA to zero and baseline LA is substantially larger than OA. Thus the FFAu profiles that result from NA plus oil are consistent with the conflation of the two effects. […] Whereas the amount of safflower and coconut oil infused increased the total FFAu to 42 and 92 nM, respectively, consistent with their dominant effects as compared to olive oil (FFAu total=8 nM).

A short description of assay [2]: Probe calibration by titration with FFA / FFA-BSA complexes: AA. It counts as binding. To be noted: equilibrium dissociation constant of probe for AA. The procedure:
(§1) Calibration: Each probe is calibrated to the extent that the constants in Equation 2 are well determined for all FFAu to be included in profile calculations. Equation 2, which is the form of equation 1 for a single FFAu, relates the FFAu concentration to the equilibrium dissociation constant (Kd), fluorometric constants (Q and Rm) and the measured R values.
(§2) The calibration parameters are determined essentially as described in U.S. Pat. No. 7,601,510 which is incorporated herein by reference and (Huber et al Biochemistry (2006) 45:14263-14274) where the calibrated ADIFAB2 probe was used to generate FFA-BSA complexes with accurate and well buffered FFAu concentrations. To calibrate probes with substantially higher affinities than used in U.S. Pat. No. 7,601,510 and (Huber et al Biochemistry (2006) 45:14263-14274) a boot strap method is used in which a probe having higher affinities is calibrated with ADTFAB2. Such a probe is then used to generate FFA-BSA complexes with FFAu concentrations from 0.1 to 10 nM and these complexes are then used to calibrate other high affinity probes.
(§3) Probe calibration involves titrating the probes with either (i) un-buffered FFA or (ii) BSA-buffered FFA stocks. The un-buffered titrations involve measuring the R-value of a 1 μM probe solution as it is slowly titrated to saturation with small aliquots of a 100 to 250 μM FFA stock (Richieri G V et al. (1992) J Biol Chem 267: 23495-23501, Richieri G V et al. (1999) Mol Cell Biochem 192: 87-94). In this case, the total FFA concentration for each point in the titration is known and a nonlinear fit to the titration data yields the full set of fluorometric constants. In an un-buffered FFA titration, probe concentration is a key variable because the probe binds FFA, directly affecting the FFAu value.
(§4) Alternatively, in a BSA-buffered FFA calibration, the probe solution is titrated with a series of FFA-BSA complexes (600 μM BSA with [FFAu] ranging from 0.1 nM to 4 μM). The titration samples are FFA-BSA complex diluted 50-fold in Measuring Buffer. Probe is added to a concentration of 0.5 μM and the R-value is measured. Because BSA buffers FFAu, its concentration remains constant (i.e. known), even after the addition of probe. […] At least two calibrations with each of the up to 15 different FFA are performed for each probe.
(§5) All of the probes reveal substantial differences for different FFAu and in many cases these differences are related to the aqueous solubility of the FFA. For example, of the FFA in Table 3, SA is the least soluble and MA the most soluble. As discussed in (Richieri G V et al (2000) Biochemistry 39: 7197-7204) the tendency of natural proteins and FABPs, in particular, is for binding constants to be largest (smallest Kd) for the least soluble FFA and conversely for the most soluble FA. In two cases, ADIFAB2 and L11, Kd for SA is substantially the smallest and MA the largest and that pattern is more or less maintained for most of the other probes in Table3 with the exception of L83. In that case MA has the largest affinity while SA's more than 10 fold smaller. To some extent the other calibrations constants follow that behavior; Q is largest for the smallest Kd and Rmax is often largest, so that the probe response tends to be larger for FFA with the larger affinities. The ability to generate mutations that overcome the “natural thermodynamics” allows for probes that have a wide range of specificities and sensitivities than enable the determination of FFAu profiles.

A short description of assay [3]: Probe calibration by titration with FFA / FFA-BSA complexes: DHA. To be noted: equilibrium dissociation constant of probe for DHA. The format is binding. As for the experimental part:
as §1, §2, §3, §4, §5

Assay [4] can be described thus: Probe calibration by titration with FFA / FFA-BSA complexes: LNA. The format is binding. To be noted: equilibrium dissociation constant of probe for LNA. The procedure: as §1, §2, §3, §4, §5
A short description of assay [5]: Probe calibration by titration with FFA / FFA-BSA complexes: LA. It counts as binding. The conditions noted are these: equilibrium dissociation constant of probe for LA. As for the experimental part: as §1, §2, §3, §4, §5
Assay [6] in a line: Probe calibration by titration with FFA / FFA-BSA complexes: OA. It counts as binding. The conditions noted are these: equilibrium dissociation constant of probe for OA. As for the experimental part: as §1, §2, §3, §4, §5
Assay [7] in a line: Probe calibration by titration with FFA / FFA-BSA complexes: PA. The format is binding. The conditions noted are these: equilibrium dissociation constant of probe for PA. As for the experimental part:
as §1, §2, §3, §4, §5

Assay [8] in a line: Probe calibration by titration with FFA / FFA-BSA complexes: POA. It counts as binding. To be noted: equilibrium dissociation constant of probe for POA. The procedure:
as §1, §2, §3, §4, §5

The nature of assay [9]: Probe calibration by titration with FFA / FFA-BSA complexes: SA. The format is binding. The conditions noted are these: equilibrium dissociation constant of probe for SA; read-out: Kd SA. The procedure:
as §1, §2, §3, §4, §5

Assay [10] in a line: Probe calibration by titration with FFA / FFA-BSA complexes: MA. The format is binding. To be noted: equilibrium dissociation constant of probe for MA. The procedure:
as §1, §2, §3, §4, §5

Assay [11] can be described thus: Probe response (increase in R) to 1 nM SA. The format is binding. To be noted: 1 nM of SA, FIG. 1. From the text: The set of probes chosen to determine the profile of a sample depends upon the nature of the sample, the types of FFA expected to be present in the sample and the determination that the chosen probes respond to the expected FFA. In addition, especially for the least abundant FFAu in a sample, the probe's sensitivity for a given FFAu must be sufficient to accurately quantitate the low concentration FFAu, for example less than 50 pM. Sensitivity is a function of the Kd, Q, Ro and Rm parameters. Differences in sensitivity among different FFAu probes are apparent in FIG. 1 where for example for ADIFAB2 (acrylodan labeled at lysine 27), 1 nM of SA produces a 20% increase in R while for L11P7B3V26C the increases is almost 500%. […] In the absence of absolutely specific and sensitive probes the determination of FFAu profiles requires an over determined system, which empirically requires about twice the number of probes as FFAu to obtain accurate profiles. The identity of the set of probes to achieve accurate FFAu profiles is not unique. […]
The response profile is the fluorescence change as evaluated as (R−Ro)/Ro (ΔR/Ro) for each FFAu added as a complex of the FFA and albumin so that the FFAu concentration is clamped or buffered at 1 nM for every FFAu for which a calibration has been performed. […]

Assay [12] is described as follows: Probe response profile / specificity for different FFAu at 1 nM. The format is binding. The conditions noted are these: FFAu giving the largest response to 1 nM of each FFAu; several listed in order of degree of specificity. From the text: The abbreviations are: arachidonate (AA), docosahexaenoate (DHA), eicosapentaenoate (EPA), laurate (LAU), linoleate (LA), linolenate (LNA), myristate (MA), oleate (OA), palmitate (PA), palmitoleate (POA), stearate (SA), and vaccenate (VA).
Examples of probes used, generally in groups of 10 or more, to determine FFAu profiles in biological samples such as blood plasma or serum from animals and humans or media from microorganisms are shown in Table 2. In the sequences presented in Table 2 and the sequence listing, amino acids are numbered from the first residue of the mature protein. The initiator methionine residue of the wild-type protein is removed by aminopeptidase activity, leaving an alanine as residue 1. Thus, counting backwards and skipping 0, the initiator methionine is at residue position −1. Specificity indicates the FFAu that gives the largest response to 1 nM of each FFAu when one FFAu dominates the profile and more than one when there is a more even distribution of specificity. Where more than one is indicated they are listed in order of degree of specificity. The abbreviations are: arachidonate (AA), docosahexaenoate (DHA), eicosapentaenoate (EPA), laurate (LAU), linoleate (LA), linolenate (LNA), myristate (MA), oleate (OA), palmitate (PA), palmitoleate (POA), stearate (SA), and vacsinate (VA). The sequences indicate mutations relative to SEQ ID NO: 1. This sequence is a mutated rat intestinal fatty acid binding protein with a Glu 131 to Asp substitution and includes a COOH-terminal affininity tag comprising […], Gly 133 and 6 histidines.
The response profile is the fluorescence change as evaluated as (R−Ro)/Ro (ΔR/Ro) for each FFAu added as a complex of the FFA and albumin so that the FFAu concentration is clamped or buffered at 1 nM for every FFAu for which a calibration has been performed. The calculation is performed simply by rearranging equation 2 to solve for ΔR/Ro. […] However all the probes have different profiles and therefore complementary specificities for different FFAu. Abbreviations are as in Table 2.

Residue numbers refer to the chain shown, from its start. In names and notes the source's numbering stands.

`O=C(O)c1cccnc1` [NA, nicotinic acid]: in [1], the “AA fraction of FFAu profile” value is on record as roughly 50% and the “baseline OA” value was “zero”. The “total FFAu” value in [1] (sum of 9 resolved FFAu, averages of 7 animals) was 2 nM. Further, the “reduction of total FFAu” value in assay [1] (versus saline, no infused oil) was “more than 4 fold”.

B1: ADIFAB2: acrylodan-labeled (lysine 27) mutant FABP probe: L72A (protein, UniProt P02693 2-132, looked up, variant L72A)
Fatty acid-binding protein, …: AFDGTWKVDRNENYEKFMEKMGINVVKRKLGAHDNLKLTITQEGNKFTVKESSNFRNIDVVFELGVDFAYSAADGTELTGTWTMEGNKLVGKFKRVDNGKELIAVREISGNELIQTYTYEGVEAKRIFKKE
modifications: acrylodan label on K27
notes: acrylodan-labeled (lysine 27) mutant FABP probe: L72A
A word on the Kd: it is the equilibrium constant for the complex coming apart. On to B1, for which the equilibrium dissociation constant (Kd) in assay [2] turned out to be 0.167 µM; in [3], 0.253 µM; in assay [4] it was 0.237 µM; in [5], 0.101 µM; in assay [6], 0.032 µM; in assay [7], 0.0214 µM. Besides, the Kd in [8] worked out at 0.257 µM; in assay [9], 0.0093 µM; in [10], 0.324 µM. Moreover, in assay [11], the “increase in R” value came out at 20%.

B2: L2P22 G6: acrylodan-labeled mutant FABP probe: M18I, G31Y, A73G (protein, UniProt P02693 2-132, looked up, variant M18I G31Y A73G)
Fatty acid-binding protein, …: B1 Fatty acid-binding protein, … with M18I, G31Y, A72L, A73G
modifications: acrylodan label
notes: acrylodan-labeled mutant FABP probe: M18I, G31Y, A73G
B2: the Kd is 0.0906 µM in assay [2]; 0.206 µM in [3]; 0.089 µM in [4]; 0.0422 µM in assay [5]; 0.0339 µM in [6]; 0.0056 µM in assay [7]. For the same molecule, the figures for the equilibrium dissociation constant (Kd) in [8], in [9] and in [10] were 0.0879 µM, 0.0176 µM and 0.0478 µM, respectively.

B3: L1P8 H2: acrylodan-labeled mutant FABP probe: Y14M, L38M, L72W (protein, UniProt P02693 2-132, looked up, variant Y14M L38M L72W)
Fatty acid-binding protein, …: B1 Fatty acid-binding protein, … with Y14M, L38M, A72W
modifications: acrylodan label
notes: acrylodan-labeled mutant FABP probe: Y14M, L38M, L72W
B3: the equilibrium dissociation constant (Kd) amounted to 0.104 µM in assay [2]; 0.248 µM in assay [3]; 0.217 µM in assay [4]; 0.0975 µM in [5]; 0.0144 µM in assay [6]; 0.0454 µM in [7]. The values for the dissociation constant Kd in assay [8], in assay [9] and in [10] were 0.209 µM, 0.0192 µM and 0.299 µM, respectively. Moreover, in [12], the Specificity result was “OA/SA/VA”.

B4: L10P7 A4 L30C: acrylodan-labeled mutant FABP probe: Y14L, M18L, K27A, L30C, G31Y, A73L, Y117A (protein, UniProt P02693 2-132, looked up, variant Y14L M18L K27A L30C G31Y A73L Y117A)
Fatty acid-binding protein, …: B1 Fatty acid-binding protein, … with Y14L, M18L, K27A, L30C, G31Y, A72L, A73L, Y117A
modifications: acrylodan label
notes: acrylodan-labeled mutant FABP probe: Y14L, M18L, K27A, L30C, G31Y, A73L, Y117A
With B4, the Kd in [2] was 0.001 µM; in [3] it was 0.0012 µM; in assay [4], 0.0027 µM; in [5], 0.0011 µM; in [6] it was 0.0013 µM; in [7] it was 0.003 µM. The Kd in assay [8] came to 0.0055 µM; in assay [9], 0.002 µM; in [10], 0.0154 µM. The Specificity result in assay [12] is “AA/DHA/OA/EPA/LA”.
